In patent publication EP1469082A1 (Boehringer Ingelheim International GmbH, dated 2004):

Columns and labels:
[1] = target: T1, APC7 fragment containing the N-terminal 297 amino acids (human, UniProt Q9UJX3 1-297, limits assumed); experiment: peptide binding assay with recombinant APC7 fragments
T1 construct: Recombinantly expressed fragment; also called APC7 N-terminal fragment

[2] = target: T2, APC7 C-terminal part (amino acids 298 to 565) comprising the block of TPRs (human, UniProt Q9UJX3 298-565, limits assumed); experiment: as above
T2 construct: Recombinantly expressed fragment; also called APC7 TPR domain; APC7 C-terminal fragment
T2 sequence (Q9UJX3 298-565 limits assumed): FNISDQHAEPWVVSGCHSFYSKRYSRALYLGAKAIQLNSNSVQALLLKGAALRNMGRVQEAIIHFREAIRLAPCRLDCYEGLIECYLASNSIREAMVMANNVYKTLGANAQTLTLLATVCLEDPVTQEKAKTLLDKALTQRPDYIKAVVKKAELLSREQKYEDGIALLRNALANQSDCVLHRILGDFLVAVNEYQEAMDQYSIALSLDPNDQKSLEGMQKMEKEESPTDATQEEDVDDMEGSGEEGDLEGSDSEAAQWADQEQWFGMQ

[3] = target: T3, recombinant HisHA-tagged APC5 (UniProt Q9UJX4 1-755); experiment: peptide matrix pull-down from insect cell lysate, western blot
T3 construct: Expressed from baculovirus and used as insect cell lysate; not shown: HisHA tag
T3 sequence (Q9UJX4 whole entry): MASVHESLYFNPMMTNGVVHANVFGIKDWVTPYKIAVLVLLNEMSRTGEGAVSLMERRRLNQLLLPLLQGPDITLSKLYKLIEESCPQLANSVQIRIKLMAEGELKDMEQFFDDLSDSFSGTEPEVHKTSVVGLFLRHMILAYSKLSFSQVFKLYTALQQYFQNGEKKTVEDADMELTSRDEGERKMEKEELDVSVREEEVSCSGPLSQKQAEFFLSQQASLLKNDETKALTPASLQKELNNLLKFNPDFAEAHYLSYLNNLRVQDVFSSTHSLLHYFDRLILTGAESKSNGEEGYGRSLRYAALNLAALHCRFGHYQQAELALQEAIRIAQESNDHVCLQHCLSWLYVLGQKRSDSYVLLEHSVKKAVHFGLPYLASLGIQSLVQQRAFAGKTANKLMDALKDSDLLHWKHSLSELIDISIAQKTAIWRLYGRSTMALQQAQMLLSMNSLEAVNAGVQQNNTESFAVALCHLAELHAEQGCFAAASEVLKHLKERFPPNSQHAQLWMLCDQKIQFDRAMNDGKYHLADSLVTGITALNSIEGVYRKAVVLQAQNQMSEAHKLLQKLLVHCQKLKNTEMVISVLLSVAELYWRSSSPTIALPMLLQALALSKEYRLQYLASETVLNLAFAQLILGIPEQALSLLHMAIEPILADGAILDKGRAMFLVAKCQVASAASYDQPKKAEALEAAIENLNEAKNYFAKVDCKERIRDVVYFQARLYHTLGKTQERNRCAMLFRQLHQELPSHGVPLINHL

[4] = target: T4, recombinant HisHA-tagged APC8 (UniProt Q9UJX2 1-597); experiment: as above
T4 construct: Expressed from baculovirus and used as insect cell lysate; also called APC8/CDC23; not shown: HisHA tag
T4 sequence (Q9UJX2 whole entry): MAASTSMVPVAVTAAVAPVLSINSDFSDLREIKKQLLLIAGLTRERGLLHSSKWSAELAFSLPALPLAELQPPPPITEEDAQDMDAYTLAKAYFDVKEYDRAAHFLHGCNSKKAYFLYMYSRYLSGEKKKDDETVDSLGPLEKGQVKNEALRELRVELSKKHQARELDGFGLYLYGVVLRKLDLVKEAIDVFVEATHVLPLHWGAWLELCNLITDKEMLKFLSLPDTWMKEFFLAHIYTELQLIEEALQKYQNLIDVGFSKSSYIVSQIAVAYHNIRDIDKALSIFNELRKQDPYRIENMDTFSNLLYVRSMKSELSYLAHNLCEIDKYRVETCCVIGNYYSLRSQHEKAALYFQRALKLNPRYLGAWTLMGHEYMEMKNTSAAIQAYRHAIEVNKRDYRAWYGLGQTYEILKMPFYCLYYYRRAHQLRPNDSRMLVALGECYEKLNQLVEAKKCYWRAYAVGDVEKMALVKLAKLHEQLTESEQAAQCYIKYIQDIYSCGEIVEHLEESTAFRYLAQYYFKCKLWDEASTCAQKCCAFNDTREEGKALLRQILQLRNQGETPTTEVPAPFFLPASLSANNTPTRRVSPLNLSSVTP

[5] = target: T5, native CDC26 from late-eluting Q column fractions of HeLa extract (human, UniProt Q8NHZ8 1-85); experiment: peptide matrix pull-down from late-eluting Q column fractions, western blot
T5 construct: Endogenous protein in anion exchange fractions
T5 sequence (Q8NHZ8 whole entry): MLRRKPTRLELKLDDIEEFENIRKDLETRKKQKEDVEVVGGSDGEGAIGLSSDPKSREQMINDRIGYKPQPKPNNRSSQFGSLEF

[6] = target: T6, recombinant HisHA-tagged APC3 (human, UniProt P30260 1-824); experiment: peptide matrix pull-down from insect cell lysate, western blot
T6 construct: Expressed from baculovirus in Sf9 or Hi5 cells and used as insect cell lysate; also called APC3/CDC27; not shown: HisHA tag
T6 sequence (P30260 whole entry): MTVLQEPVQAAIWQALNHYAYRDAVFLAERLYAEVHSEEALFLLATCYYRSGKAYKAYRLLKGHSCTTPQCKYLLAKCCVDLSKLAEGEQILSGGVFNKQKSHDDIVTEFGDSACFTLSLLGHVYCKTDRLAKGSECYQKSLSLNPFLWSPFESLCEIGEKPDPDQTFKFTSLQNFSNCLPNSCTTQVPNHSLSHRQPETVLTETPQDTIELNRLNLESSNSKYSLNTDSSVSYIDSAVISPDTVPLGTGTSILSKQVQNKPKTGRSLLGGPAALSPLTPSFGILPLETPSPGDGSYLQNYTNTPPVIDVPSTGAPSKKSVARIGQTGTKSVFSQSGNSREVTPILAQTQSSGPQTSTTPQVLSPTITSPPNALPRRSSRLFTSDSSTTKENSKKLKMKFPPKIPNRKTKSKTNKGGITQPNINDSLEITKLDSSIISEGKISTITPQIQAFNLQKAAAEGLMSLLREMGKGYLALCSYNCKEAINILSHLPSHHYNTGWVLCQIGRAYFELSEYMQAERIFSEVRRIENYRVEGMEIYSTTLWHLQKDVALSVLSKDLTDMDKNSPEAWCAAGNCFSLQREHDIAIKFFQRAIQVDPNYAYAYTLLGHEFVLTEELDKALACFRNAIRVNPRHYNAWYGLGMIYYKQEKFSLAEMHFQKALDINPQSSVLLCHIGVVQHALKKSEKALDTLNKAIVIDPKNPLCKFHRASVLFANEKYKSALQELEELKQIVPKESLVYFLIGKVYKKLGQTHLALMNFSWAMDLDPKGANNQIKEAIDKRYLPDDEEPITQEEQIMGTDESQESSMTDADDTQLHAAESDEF

[7] = target: T7, holo-APC (Anaphase Promoting Complex / cyclosome) from HeLa cells (human, UniProt Q9H1A4 1-1944; Q9UJX6 1-822; P30260 1-824; Q9UJX5 1-808; Q9UJX4 1-755; Q13042 …); experiment: peptide matrix pull-down from APC-containing fractions, western blot
T7 construct: Native multisubunit complex with 11 known subunits; It carries substoichiometric amounts of endogenous CDH1; also called immunopurified APC; APC-IPs

T1 sequence (Q9UJX3 1-297 limits assumed): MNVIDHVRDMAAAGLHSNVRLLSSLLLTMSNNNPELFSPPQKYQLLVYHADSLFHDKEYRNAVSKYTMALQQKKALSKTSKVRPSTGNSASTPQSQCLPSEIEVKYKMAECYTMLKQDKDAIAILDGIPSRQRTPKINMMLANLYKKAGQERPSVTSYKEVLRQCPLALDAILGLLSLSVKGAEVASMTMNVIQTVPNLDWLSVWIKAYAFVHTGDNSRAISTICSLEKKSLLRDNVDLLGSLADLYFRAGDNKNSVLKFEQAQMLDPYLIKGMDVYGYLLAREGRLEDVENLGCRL

| binding result [1] | binding result [2] | binding result [3] | binding result [4] | binding result [5] | binding result [6] | binding result [7] | Binder |
| --- | --- | --- | --- | --- | --- | --- | --- |
| no binding | binds | no binding | no binding | no binding | – | – | CFSKTRSTKESVSVLNLFTRIR (Synthetic peptide; also called CDH1 C-terminus; CDH1 peptide) [CDH1 C-terminal peptide CFSKTRSTKESVSVLNLFTRIR] |
| – | – | – | – | – | no binding | no binding | CAVWSLSSCKPGFGVD [control peptide CAVWSLSSCKPGFGVD] |
| – | binds | no binding | no binding | – | – | – | CLRREREKASTSKSSLIHQGIR (Synthetic peptide; also called CDC20 C-terminus; CDC20 peptide) [CDC20 C-terminal peptide CLRREREKASTSKSSLIHQGIR] |
